Measurements reported in publication PMC3915059 (Archives of biochemistry and biophysics, 2013).

Tests used:
[1] = target: T1, Δ^1-pyrroline-5-carboxylate dehydrogenase (MmP5CDH, ALDH4A1) (Mus musculus, UniProt Q8CHT0); experiment: steady-state inhibition kinetics, NADH production at […] nm, competitive model; assay type: biochemical
T1 sequence (Q8CHT0 21-562): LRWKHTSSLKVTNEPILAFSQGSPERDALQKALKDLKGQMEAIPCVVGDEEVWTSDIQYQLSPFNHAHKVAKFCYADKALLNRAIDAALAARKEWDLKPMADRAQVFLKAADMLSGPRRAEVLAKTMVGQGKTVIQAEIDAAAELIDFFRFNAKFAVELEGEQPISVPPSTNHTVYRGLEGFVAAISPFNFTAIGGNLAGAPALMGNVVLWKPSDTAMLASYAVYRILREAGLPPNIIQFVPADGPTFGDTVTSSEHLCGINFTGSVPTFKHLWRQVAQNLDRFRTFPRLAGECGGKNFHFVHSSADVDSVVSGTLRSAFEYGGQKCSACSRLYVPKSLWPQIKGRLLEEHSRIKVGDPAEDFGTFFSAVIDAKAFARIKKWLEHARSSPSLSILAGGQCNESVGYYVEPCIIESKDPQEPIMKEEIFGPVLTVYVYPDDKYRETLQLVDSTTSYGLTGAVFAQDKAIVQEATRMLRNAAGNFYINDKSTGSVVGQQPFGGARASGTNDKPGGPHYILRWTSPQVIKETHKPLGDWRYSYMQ

[2] = target: T1, Δ^1-pyrroline-5-carboxylate dehydrogenase (MmP5CDH, ALDH4A1); experiment: X-ray crystal structure; assay type: biochemical
purified protein = substrate: O=CCCC(=O)O; experiment: purified protein; details: NAD+ aldehyde substrate site; 20.0 °C

`N[C@@H](CCC(=O)O)C(=O)O` [L-glutamate] gave a Ki [1] of 12 mM.

For `O=CC(=O)O` [compound 4, glyoxylate], the Ki [2] was 270 µM.

B1: Δ^1-pyrroline-5-carboxylate dehydrogenase (MmP5CDH, ALDH4A1) (Mus musculus) (protein)
chain: T1 sequence (Q8CHT0 21-562)
Molecule B1 has a Km (purified protein) of 26 ± 2 µM, a kcat (purified protein) of 0.16 s⁻¹ and a kcat/Km (purified protein) of 6200 M⁻¹ s⁻¹.
